Results on 16 molecules are retold here after PMC11658451, “The human Dicer helicase domain is capable of ATP hydrolysis and single-stranded nucleic acid binding” (BMC Biology, 2024).

For data set [1], the target named is T1, WT hDicer (Homo sapiens, UniProt Q9UPY3).
T1 construct: gene DICER1; full-length, 1922 aa, ~220 kDa; expressed in human 293T NoDice cells and purified; K70A variant from Addgene plasmid 41589
Briefly: EMSA with radiolabelled ATP. Type of data set: binding. (In general: In EMSA bound probe runs differently from free probe, usually more slowly.)

For data set [2], the target named is T2, HEL (Homo sapiens, UniProt Q9UPY3).
T2 construct: gene DICER1; isolated helicase domain, residues 1-624, N-terminal His6 tag (pMCSG7), expressed in E. coli BL21Star, Ni-Sepharose purified
T2 sequence (Q9UPY3 1-624): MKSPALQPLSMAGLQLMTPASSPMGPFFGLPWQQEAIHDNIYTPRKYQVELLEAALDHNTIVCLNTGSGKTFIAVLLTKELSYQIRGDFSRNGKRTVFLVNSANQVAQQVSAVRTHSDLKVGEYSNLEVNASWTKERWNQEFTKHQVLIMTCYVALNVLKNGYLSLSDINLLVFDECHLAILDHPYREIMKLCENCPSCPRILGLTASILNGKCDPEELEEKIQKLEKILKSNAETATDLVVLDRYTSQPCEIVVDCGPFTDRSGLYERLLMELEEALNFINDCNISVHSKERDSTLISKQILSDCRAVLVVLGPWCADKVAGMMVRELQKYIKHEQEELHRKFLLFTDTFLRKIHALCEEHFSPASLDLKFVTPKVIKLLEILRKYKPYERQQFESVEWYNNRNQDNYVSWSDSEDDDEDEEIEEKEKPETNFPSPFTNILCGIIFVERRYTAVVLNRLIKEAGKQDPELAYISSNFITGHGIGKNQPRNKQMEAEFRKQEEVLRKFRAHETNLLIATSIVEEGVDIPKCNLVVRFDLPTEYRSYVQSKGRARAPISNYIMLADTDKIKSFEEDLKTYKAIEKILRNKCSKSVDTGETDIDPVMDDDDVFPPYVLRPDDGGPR
The data set is described as follows: ATP hydrolysis, PAGE of released […]. As to conditions: labelled compound ([γ-32P]-ATP, 2 nM), HEL 2 nM (low turnover); 150 mM NaCl, 50 mM Tris-HCl pH 7.5, 2.5 mM MgCl2, 37 °C. Type of data set: biochemical.

The target of data set [3] is T3, WT hDicer (Homo sapiens, UniProt Q9UPY3, K70A).
T3 construct: gene DICER1; full-length, 1922 aa, ~220 kDa; expressed in human 293T NoDice cells and purified; K70A variant from Addgene plasmid 41589
Briefly: EMSA with radiolabelled ATP. As to conditions: labelled compound ([γ-32P]-ATP, 2 nM); 150 mM NaCl, 50 mM Tris-HCl pH 7.5, 2.5 mM MgCl2, 4 °C, no RNA; Walker A mutant; weak binding, Kd could not be determined.

Data set [4] concerns the target T4, HEL (hDicer helicase domain) (Homo sapiens, UniProt Q9UPY3 1-624).
T4 sequence: T2 sequence (Q9UPY3 1-624)
The data set is described as follows: EMSA; up to 95 uM HEL; 50 mM Tris-HCl pH 7.5, 150 mM NaCl; EMSA 15 min at room temperature (also 4 and 37 C), 5% native PAA gel in 1x TBE at 4 C; BLI 23 C. The settings on record: protein: recombinant, tags: N-terminal His6 (pMCSG7).

Data set [5] deals with T4, HEL (hDicer helicase domain). Briefly: EMSA; room temperature; 50 mM Tris-HCl pH 7.5, 150 mM NaCl; EMSA 15 min at room temperature (also 4 and 37 C), 5% native PAA gel in 1x TBE at 4 C; BLI 23 C. As to conditions: protein: recombinant; tags: N-terminal His6 (pMCSG7); label: 5' 32P; unstructured.
Data set [6] shares this target. Briefly: CD thermal melting; HEL transitions shift to 52 and 74 C; RNA transition 75 to 60 C; 50 mM Tris-HCl pH 7.5, 150 mM NaCl; EMSA 15 min at room temperature (also 4 and 37 C), 5% native PAA gel in 1x TBE at 4 C; BLI 23 C. As to conditions: protein: recombinant; tags: N-terminal His6 (pMCSG7); label: 5' 32P (EMSA); none (BLI); partly self-paired (predicted).
Data set [7] has the same target. The data set is described as follows: EMSA; 37 C; 50 mM Tris-HCl pH 7.5, 150 mM NaCl; EMSA 15 min at room temperature (also 4 and 37 C), 5% native PAA gel in 1x TBE at 4 C; BLI 23 C. The settings on record: protein: recombinant; tags: N-terminal His6 (pMCSG7); label: 5' 32P; unstructured.
Data set [8] has the same target. Briefly: EMSA; 50 mM Tris-HCl pH 7.5, 150 mM NaCl; EMSA 15 min at room temperature (also 4 and 37 C), 5% native PAA gel in 1x TBE at 4 C; BLI 23 C. As to conditions: protein: recombinant; tags: N-terminal His6 (pMCSG7); label: 5' 32P (EMSA); none (BLI).
The target is the same in data set [9]. Briefly: BLI; 23 C, HEL immobilized; 50 mM Tris-HCl pH 7.5, 150 mM NaCl; EMSA 15 min at room temperature (also 4 and 37 C), 5% native PAA gel in 1x TBE at 4 C; BLI 23 C. The settings on record: protein: recombinant; tags: N-terminal His6 (pMCSG7); label: 5' 32P (EMSA); none (BLI). Background: Biolayer interferometry detects binding as a change in optical thickness at a sensor tip.

Data set [10] has the same target. The data set is described as follows: EMSA; distinct complex; 50 mM Tris-HCl pH 7.5, 150 mM NaCl; EMSA 15 min at room temperature (also 4 and 37 C), 5% native PAA gel in 1x TBE at 4 C; BLI 23 C. As to conditions: protein: recombinant; tags: N-terminal His6 (pMCSG7); label: 5' 32P (EMSA); none (BLI).
The target is the same in data set [11]. The data set is described as follows: SAXS; 1:1 complex; 50 mM Tris-HCl pH 7.5, 150 mM NaCl; EMSA 15 min at room temperature (also 4 and 37 C), 5% native PAA gel in 1x TBE at 4 C; BLI 23 C. The settings on record: protein: recombinant, tags: N-terminal His6 (pMCSG7), label: 5' 32P (EMSA), hairpin.
Setting [12] is: label: 5' 32P on one strand, blunt.
Setting [13] is: label: 5' 32P on one strand, 3' overhang 2 nt on each end.

T3 sequence (Q9UPY3 whole entry K70A): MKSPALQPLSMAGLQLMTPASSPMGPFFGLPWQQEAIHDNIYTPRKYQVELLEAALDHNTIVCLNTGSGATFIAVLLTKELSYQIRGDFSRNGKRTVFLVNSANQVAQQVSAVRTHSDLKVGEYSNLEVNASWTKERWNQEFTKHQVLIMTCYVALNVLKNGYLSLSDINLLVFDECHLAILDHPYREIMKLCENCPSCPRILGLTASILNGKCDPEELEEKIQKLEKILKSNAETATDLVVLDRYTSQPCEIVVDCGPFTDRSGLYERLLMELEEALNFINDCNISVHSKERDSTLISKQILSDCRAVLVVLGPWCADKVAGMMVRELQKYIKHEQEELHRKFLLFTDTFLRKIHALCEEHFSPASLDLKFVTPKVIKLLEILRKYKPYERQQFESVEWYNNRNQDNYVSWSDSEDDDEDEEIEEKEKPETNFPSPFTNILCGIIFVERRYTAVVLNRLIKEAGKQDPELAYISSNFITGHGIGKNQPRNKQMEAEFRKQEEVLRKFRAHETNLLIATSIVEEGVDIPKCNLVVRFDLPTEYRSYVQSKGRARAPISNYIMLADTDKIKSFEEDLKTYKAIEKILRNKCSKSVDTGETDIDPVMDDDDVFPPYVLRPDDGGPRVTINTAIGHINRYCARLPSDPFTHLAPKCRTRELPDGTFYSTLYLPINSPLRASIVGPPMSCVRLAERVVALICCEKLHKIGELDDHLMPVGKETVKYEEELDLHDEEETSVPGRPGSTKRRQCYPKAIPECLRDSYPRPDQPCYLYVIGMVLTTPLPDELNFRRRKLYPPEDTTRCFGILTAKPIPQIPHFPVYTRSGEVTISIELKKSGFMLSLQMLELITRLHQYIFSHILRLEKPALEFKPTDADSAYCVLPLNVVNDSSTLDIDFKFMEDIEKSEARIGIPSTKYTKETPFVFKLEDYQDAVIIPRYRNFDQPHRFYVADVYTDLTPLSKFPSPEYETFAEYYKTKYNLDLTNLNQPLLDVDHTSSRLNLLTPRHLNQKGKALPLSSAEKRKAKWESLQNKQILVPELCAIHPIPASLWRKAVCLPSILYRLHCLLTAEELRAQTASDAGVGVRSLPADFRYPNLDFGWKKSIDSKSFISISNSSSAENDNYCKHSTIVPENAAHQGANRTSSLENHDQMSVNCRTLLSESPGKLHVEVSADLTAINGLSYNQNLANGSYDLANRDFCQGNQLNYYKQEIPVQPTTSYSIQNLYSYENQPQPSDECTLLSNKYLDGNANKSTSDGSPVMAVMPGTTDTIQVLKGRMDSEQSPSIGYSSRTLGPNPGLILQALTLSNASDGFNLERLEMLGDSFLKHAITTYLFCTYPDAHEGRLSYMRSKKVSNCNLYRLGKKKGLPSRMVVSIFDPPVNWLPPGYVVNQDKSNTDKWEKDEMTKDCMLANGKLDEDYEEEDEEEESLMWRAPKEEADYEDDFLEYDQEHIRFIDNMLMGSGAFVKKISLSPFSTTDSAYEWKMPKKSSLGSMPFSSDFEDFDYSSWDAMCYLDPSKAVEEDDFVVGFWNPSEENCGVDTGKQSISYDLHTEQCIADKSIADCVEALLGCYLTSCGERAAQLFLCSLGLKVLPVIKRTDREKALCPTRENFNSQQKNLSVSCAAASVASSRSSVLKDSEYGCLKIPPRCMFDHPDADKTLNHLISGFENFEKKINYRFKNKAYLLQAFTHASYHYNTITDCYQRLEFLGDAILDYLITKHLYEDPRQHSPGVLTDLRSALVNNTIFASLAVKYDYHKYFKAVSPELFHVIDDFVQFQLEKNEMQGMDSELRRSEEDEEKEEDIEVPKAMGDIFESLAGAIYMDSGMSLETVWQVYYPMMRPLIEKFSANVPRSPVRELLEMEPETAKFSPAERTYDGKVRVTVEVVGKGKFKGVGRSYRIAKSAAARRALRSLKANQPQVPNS

As a reminder, the Kd is the constant that tells how readily two partners part at equilibrium. The molecule `Nc1ncnc2c1ncn2[C@@H]1O[C@H](COP(=O)(O)OP(=O)(O)OP(=O)(O)O)[C@@H](O)[C@H]1O` [ATP] yielded a Kd in [1] of around 0.085 µM. Besides, in [2], the “ATP hydrolysis, PAGE of released 32Pi” value is “ATP was hydrolyzed in reactions carried out with HEL (Fig. 2a) and WT hDicer”. Further, in data set [3], the “EMSA with radiolabelled ATP” value is recorded as “only weak ATP binding could be observed for hDicer_K70A”.

In the case of GAAUCUUAACGC (ssRNA) [R12], the binding result in [4] (label: 5' 32P) is recorded as “no binding”.

As for ACACACACACACACACACACACACACACACACACACACACAC (ssRNA) [(AC)21], the binding result in data set [5] is on record as “binds”.

Consider GGGAGAAUCAUAAGUAGCCUCCCCCCAUGUUAACAGUUAGCC (ssRNA) [R42], for which the binding result in data set [6] is recorded as “binds”.

Regarding CUCUCUCUCUCUCUCUCUCUCUCUCUCUCUCUCUCUCUCUCU (ssRNA) [(CU)21], the binding result in [7] was “binds”.

B1: D56 (ssDNA)
DNA: GGGAGAATCATAAGTAGCGCAGTGAGTCGTTGTGCTGCCCATGTTAACAGTTAGCC
As to B1, the results for the dissociation constant (Kd) in [8] and in data set [9] were around 7.4 µM and around 21 µM, respectively.

With GAATCTTAACGC (ssDNA) [D12], the binding result in data set [4] (label: 5' 32P) is on record as “no binding”.

Regarding GTGCATTGTAGTTGCATTGCATGTTCTGGTCA (ssDNA) [D32], the binding result in data set [10] was “binds”.

B2: dsDNA_blunt (dsDNA)
DNA 1: GTGCATTGTAGTTGCATTGCATGTTCTGGTCA
DNA 2: TGACCAGAACATGCAATGCAACTACAATGCAC
Consider B2, for which the binding result in data set [4] (setting [12]) is listed as “no binding”.

B3: dsDNA_over (dsDNA)
DNA 1: B2 DNA 1
DNA 2: ACCAGAACATGCAATGCAACTACAATGCACAT
As to B3, the binding result in [4] (setting [13]) was “no binding”.

GGGAGAATCATAAGTAGCCTCCCCCCATGTTAACAGTTAGCC (ssDNA) [D42]: the Kd in data set [8] was around 8.5 µM; in data set [9] it was around 22 µM.

B4: R56 (ssRNA)
RNA: GGGAGAAUCAUAAGUAGCGCAGUGAGUCGUUGUGCUGCCCAUGUUAACAGUUAGCC
With B4, the Kd in data set [9] was around 23 µM.

B5: pre-mir-16-1 (structured_RNA)
RNA: UAGCAGCACGUAAAUAUUGGCGUUAAGAUUCUAAAAUUAUCUCCAGUAUUAACUGUGCUGCUGAA
As to B5, the binding result in data set [11] (9-nt apical loop) is reported as “binds”.

B6: dsRNA_blunt (dsRNA)
RNA 1: GUGCAUUGUAGUUGCAUUGCAUGUUCUGGUCA
RNA 2: UGACCAGAACAUGCAAUGCAACUACAAUGCAC
Turning to B6, in data set [4] (setting [12]), the binding result is listed as “no binding”.

B7: dsRNA_over (dsRNA)
RNA 1: B6 RNA 1
RNA 2: ACCAGAACAUGCAAUGCAACUACAAUGCACAU
B7: the binding result in data set [4] (setting [13]) was “no binding”.

B8: pre-mir-21 (structured_RNA)
RNA: AGCUUAUCAGACUGAUGUUGACUGUUGAAUCUCAUGGCAACACCAGUCGAUGGGCUGU
Turning to B8, the binding result in data set [11] is on record as “binds”.
